The text below walks through data of patent US20180155451A1 (published 2018).

T1: FcγRIIa R (human FcγRIIa, allotype R, Arg at position 131), extracellular domain with C-terminal His tag (human, UniProt P12318 34-217)
T1 construct: extracellular domain; expressed in FreeStyle293 cells; analyte in Biacore; also called 2aR; FcgRIIa R
T1 sequence (looked up): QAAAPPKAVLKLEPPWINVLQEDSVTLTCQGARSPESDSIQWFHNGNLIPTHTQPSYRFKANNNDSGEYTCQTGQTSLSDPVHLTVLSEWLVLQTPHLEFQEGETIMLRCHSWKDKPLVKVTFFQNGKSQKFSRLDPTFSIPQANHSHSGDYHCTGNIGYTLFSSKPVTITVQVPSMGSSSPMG

B1: GpH7-A5/GpH7-B3 variant P331_09D/GpL16-k0 (antibody, human IgG1, kappa)
heavy 1: not shown
heavy 2: not shown
light: DIVMTQSPLSLPVTPGEPASISCQASESLVHSNRNTYLHWYLQKPGQSPQLLIYKVSNRFSGVPDRFSGSGSGTDFTLKISRVEAEDVGVYYCSQNTHVPPTFGQGTKVEIERTVAAPSVFIFPPSDEQLKSGTASVVCLLNNFYPREAKVQWKVDNALQSGNSQESVTEQDSKDSTYSLSSTLTLSKADYEKHKVYACEVTHQGLSSPVTKSFNRGEC
notes: heterodimerized antibody, mutation in one H chain only; also called He Ab
B2: GpH7-A5/GpH7-B3 variant S337_12R/GpL16-k0 (antibody, human IgG1, kappa)
heavy 1: not shown
heavy 2: not shown
light: B1 light
notes: as for B1
B3: GpH7-A5/GpH7-B3 variant Y296_13S/GpL16-k0 (antibody, human IgG1, kappa)
heavy 1: not shown
heavy 2: not shown
light: B1 light
notes: as for B1
B4: GpH7-A5/GpH7-B3 variant T335_20W/GpL16-k0 (antibody, human IgG1, kappa)
heavy 1: not shown
heavy 2: not shown
light: B1 light
notes: as for B1
B5: GpH7-A5/GpH7-B3 variant S239_06M/GpL16-k0 (antibody, human IgG1, kappa)
heavy 1: not shown
heavy 2: not shown
light: B1 light
notes: as for B1
B6: GpH7-A5/GpH7-B3 variant T335_12R/GpL16-k0 (antibody, human IgG1, kappa)
heavy 1: not shown
heavy 2: not shown
light: B1 light
notes: as for B1
B7: GpH7-A5/GpH7-B3 variant Y296_20W/GpL16-k0 (antibody, human IgG1, kappa)
heavy 1: not shown
heavy 2: not shown
light: B1 light
notes: as for B1
B8: GpH7-A5/GpH7-B3 variant T335_01G/GpL16-k0 (antibody, human IgG1, kappa)
heavy 1: not shown
heavy 2: not shown
light: B1 light
notes: as for B1
B9: GpH7-A5/GpH7-B3 variant S337_19Q/GpL16-k0 (antibody, human IgG1, kappa)
heavy 1: not shown
heavy 2: not shown
light: B1 light
notes: as for B1
B10: GpH7-A5/GpH7-B3 variant Y296_10E/GpL16-k0 (antibody, human IgG1, kappa)
heavy 1: not shown
heavy 2: not shown
light: B1 light
notes: as for B1
B11: GpH7-A5/GpH7-B3 variant S337_10E/GpL16-k0 (antibody, human IgG1, kappa)
heavy 1: not shown
heavy 2: not shown
light: B1 light
notes: as for B1
B12: GpH7-A5/GpH7-B3 variant S239_05P/GpL16-k0 (antibody, human IgG1, kappa)
heavy 1: not shown
heavy 2: not shown
light: B1 light
notes: as for B1
B13: GpH7-A5/GpH7-B3 variant S337_07I/GpL16-k0 (antibody, human IgG1, kappa)
heavy 1: not shown
heavy 2: not shown
light: B1 light
notes: as for B1
B14: GpH7-A5/GpH7-B3 variant Y296_18N/GpL16-k0 (antibody, human IgG1, kappa)
heavy 1: not shown
heavy 2: not shown
light: B1 light
notes: as for B1
B15: GpH7-A5/GpH7-B3 variant S337_11K/GpL16-k0 (antibody, human IgG1, kappa)
heavy 1: not shown
heavy 2: not shown
light: B1 light
notes: as for B1
B16: GpH7-A5/GpH7-B3 variant Y296_16H/GpL16-k0 (antibody, human IgG1, kappa)
heavy 1: not shown
heavy 2: not shown
light: B1 light
notes: as for B1
B17: GpH7-A5/GpH7-B3 variant S337_09D/GpL16-k0 (antibody, human IgG1, kappa)
heavy 1: not shown
heavy 2: not shown
light: B1 light
notes: as for B1
B18: GpH7-A5/GpH7-B3 variant Y296_14T/GpL16-k0 (antibody, human IgG1, kappa)
heavy 1: not shown
heavy 2: not shown
light: B1 light
notes: as for B1
B19: GpH7-A5/GpH7-B3 variant T335_15Y/GpL16-k0 (antibody, human IgG1, kappa)
heavy 1: not shown
heavy 2: not shown
light: B1 light
notes: as for B1
B20: GpH7-A5/GpH7-B3 variant Y296_06M/GpL16-k0 (antibody, human IgG1, kappa)
heavy 1: not shown
heavy 2: not shown
light: B1 light
notes: as for B1
B21: GpH7-A5/GpH7-B3 variant Q295_10E/GpL16-k0 (antibody, human IgG1, kappa)
heavy 1: not shown
heavy 2: not shown
light: B1 light
notes: as for B1
B22: GpH7-A5/GpH7-B3 variant S239_07I/GpL16-k0 (antibody, human IgG1, kappa)
heavy 1: not shown
heavy 2: not shown
light: B1 light
notes: as for B1
B23: GpH7-A5/GpH7-B3 variant T335_07I/GpL16-k0 (antibody, human IgG1, kappa)
heavy 1: not shown
heavy 2: not shown
light: B1 light
notes: as for B1
B24: GpH7-A5/GpH7-B3 variant S337_16H/GpL16-k0 (antibody, human IgG1, kappa)
heavy 1: not shown
heavy 2: not shown
light: B1 light
notes: as for B1
B25: GpH7-A5/GpH7-B3 variant T335_05P/GpL16-k0 (antibody, human IgG1, kappa)
heavy 1: not shown
heavy 2: not shown
light: B1 light
notes: as for B1
B26: GpH7-A5/GpH7-B3 variant S337_06M/GpL16-k0 (antibody, human IgG1, kappa)
heavy 1: not shown
heavy 2: not shown
light: B1 light
notes: as for B1
B27: GpH7-A5/GpH7-B3 variant Y296_09D/GpL16-k0 (antibody, human IgG1, kappa)
heavy 1: not shown
heavy 2: not shown
light: B1 light
notes: as for B1
B28: GpH7-A5/GpH7-B3 variant T335_19Q/GpL16-k0 (antibody, human IgG1, kappa)
heavy 1: not shown
heavy 2: not shown
light: B1 light
notes: as for B1
B29: GpH7-A5/GpH7-B3 variant T335_02A/GpL16-k0 (antibody, human IgG1, kappa)
heavy 1: not shown
heavy 2: not shown
light: B1 light
notes: as for B1
B30: GpH7-A5/GpH7-B3 variant S337_08L/GpL16-k0 (antibody, human IgG1, kappa)
heavy 1: not shown
heavy 2: not shown
light: B1 light
notes: as for B1
B31: GpH7-A5/GpH7-B3 variant T335_13S/GpL16-k0 (antibody, human IgG1, kappa)
heavy 1: not shown
heavy 2: not shown
light: B1 light
notes: as for B1
B32: GpH7-A5/GpH7-B3 variant Y296_19Q/GpL16-k0 (antibody, human IgG1, kappa)
heavy 1: not shown
heavy 2: not shown
light: B1 light
notes: as for B1
B33: GpH7-A5/GpH7-B3 variant V266_06M/GpL16-k0 (antibody, human IgG1, kappa)
heavy 1: not shown
heavy 2: not shown
light: B1 light
notes: as for B1
B34: GpH7-A5/GpH7-B3 variant T335_10E/GpL16-k0 (antibody, human IgG1, kappa)
heavy 1: not shown
heavy 2: not shown
light: B1 light
notes: as for B1
B35: GpH7-A5/GpH7-B3 variant Y296_04F/GpL16-k0 (antibody, human IgG1, kappa)
heavy 1: not shown
heavy 2: not shown
light: B1 light
notes: as for B1
B36: GpH7-A5/GpH7-B3 variant P331_13S/GpL16-k0 (antibody, human IgG1, kappa)
heavy 1: not shown
heavy 2: not shown
light: B1 light
notes: as for B1
B37: GpH7-A5/GpH7-B3 variant S239_14T/GpL16-k0 (antibody, human IgG1, kappa)
heavy 1: not shown
heavy 2: not shown
light: B1 light
notes: as for B1
B38: GpH7-A5/GpH7-B3 variant Y300_18N/GpL16-k0 (antibody, human IgG1, kappa)
heavy 1: not shown
heavy 2: not shown
light: B1 light
notes: as for B1
B39: GpH7-A5/GpH7-B3 variant S337_03V/GpL16-k0 (antibody, human IgG1, kappa)
heavy 1: not shown
heavy 2: not shown
light: B1 light
notes: as for B1
B40: GpH7-A5/GpH7-B3 variant S337_18N/GpL16-k0 (antibody, human IgG1, kappa)
heavy 1: not shown
heavy 2: not shown
light: B1 light
notes: as for B1
B41: GpH7-A5/GpH7-B3 variant P331_10E/GpL16-k0 (antibody, human IgG1, kappa)
heavy 1: not shown
heavy 2: not shown
light: B1 light
notes: as for B1
B42: GpH7-A5/GpH7-B3 variant P331_14T/GpL16-k0 (antibody, human IgG1, kappa)
heavy 1: not shown
heavy 2: not shown
light: B1 light
notes: as for B1
B43: GpH7-A5/GpH7-B3 variant S337_04F/GpL16-k0 (antibody, human IgG1, kappa)
heavy 1: not shown
heavy 2: not shown
light: B1 light
notes: as for B1
B44: GpH7-A5/GpH7-B3 variant T335_16H/GpL16-k0 (antibody, human IgG1, kappa)
heavy 1: not shown
heavy 2: not shown
light: B1 light
notes: as for B1
B45: GpH7-A5/GpH7-B3 variant Y296_07I/GpL16-k0 (antibody, human IgG1, kappa)
heavy 1: not shown
heavy 2: not shown
light: B1 light
notes: as for B1
B46: GpH7-A5/GpH7-B3 variant S337_15Y/GpL16-k0 (antibody, human IgG1, kappa)
heavy 1: not shown
heavy 2: not shown
light: B1 light
notes: as for B1
B47: GpH7-A5/GpH7-B3 variant P331_18N/GpL16-k0 (antibody, human IgG1, kappa)
heavy 1: not shown
heavy 2: not shown
light: B1 light
notes: as for B1
B48: GpH7-A5/GpH7-B3 variant T335_18N/GpL16-k0 (antibody, human IgG1, kappa)
heavy 1: not shown
heavy 2: not shown
light: B1 light
notes: as for B1
B49: GpH7-A5/GpH7-B3 variant S337_20W/GpL16-k0 (antibody, human IgG1, kappa)
heavy 1: not shown
heavy 2: not shown
light: B1 light
notes: as for B1
B50: GpH7-A5/GpH7-B3 variant Q295_06M/GpL16-k0 (antibody, human IgG1, kappa)
heavy 1: not shown
heavy 2: not shown
light: B1 light
notes: as for B1

In this assay the target is T1, FcγRIIa R (human FcγRIIa, allotype R, …). In words: SPR (Biacore), relative binding vs GpH7-A5/GpH7-B3/GpL16-k0. The protocol: Analysis of interaction between objective antibody and the FcγR was carried out using Biacore T100 (GE Healthcare). HBS-EP+ (GE Healthcare) was used as the running buffer, and the measurement temperature was set to 25° C. Chips produced by immobilizing the antigen peptide by the amine coupling method to a Series S Sencor Chip CM5 (GE Healthcare), or alternatively, chips produced by allowing preliminarily biotinylated antigen peptides to interact with and immobilize onto a Series S Sensor Chip SA (certified) (GE Healthcare) were used. Antibodies of interest were captured onto an antigen peptide-immobilized chip, and allowed to interact to each FcγR diluted with running buffer. To regenerate and repeatedly use the chip, the antibodies captured on the chip were washed off by reacting 10 mM glycine-HCl, pH 1.5.
The FcγR-binding activity of each antibody was assessed primarily using as an indicator the FcγR-binding activity and dissociation constant for FcγR.
For orientation: In SPR one partner is held on a chip, and binding of the other changes the refractive index at the surface.
As for B1, the He/Con_2aR is 102 relative, control = 100. In the case of B2 it was 107 relative, control = 100; in that of B3, 102 relative, control = 100. In the case of B4 it was 109 relative, control = 100. For the molecule B5, the He/Con_2aR was 101 relative, control = 100.

With B6, the He/Con_2aR was 100 relative, control = 100. On to B7, for which the He/Con_2aR is 110 relative, control = 100. The result for B8 reads 104 relative, control = 100; that for B9, 106 relative, control = 100. For B10, the He/Con_2aR is 103 relative, control = 100.

For B11, the He/Con_2aR was 112 relative, control = 100.

As to B12, the He/Con_2aR is 106 relative, control = 100. In the case of B13 it was 109 relative, control = 100. In the case of B14 it was 104 relative, control = 100. The result for B15 reads 103 relative, control = 100. On to B16, for which the He/Con_2aR is 105 relative, control = 100.

B17: the He/Con_2aR is 115 relative, control = 100. The result for B18 reads 103 relative, control = 100; that for B19, 111 relative, control = 100; that for B20, 101 relative, control = 100. In the case of B21, the He/Con_2aR is 102 relative, control = 100.

As for B22, the He/Con_2aR is 102 relative, control = 100. For B23, the He/Con_2aR was 109 relative, control = 100. The result for B24 reads 109 relative, control = 100. With B25, the He/Con_2aR is 104 relative, control = 100. In the case of B26 it was 105 relative, control = 100. Take B27: the He/Con_2aR was 106 relative, control = 100. For B28, the He/Con_2aR is 106 relative, control = 100. Turning to B29, the He/Con_2aR was 102 relative, control = 100. For the molecule B30, the He/Con_2aR is 107 relative, control = 100.

As to B31, the He/Con_2aR was 110 relative, control = 100.

In the case of B32, the He/Con_2aR is 102 relative, control = 100. As for B33, the He/Con_2aR was 150 relative, control = 100. The result for B34 reads 111 relative, control = 100. For B35, the He/Con_2aR was 109 relative, control = 100. In the case of B36 it was 105 relative, control = 100; in that of B37, 103 relative, control = 100. Turning to B38, the He/Con_2aR is 100 relative, control = 100. The result for B39 reads 106 relative, control = 100; that for B40, 107 relative, control = 100; that for B41, 113 relative, control = 100. Turning to B42, the He/Con_2aR was 104 relative, control = 100. For the molecule B43, the He/Con_2aR was 105 relative, control = 100. Take B44: the He/Con_2aR is 108 relative, control = 100.

In the case of B45, the He/Con_2aR was 101 relative, control = 100. The result for B46 reads 105 relative, control = 100.

As for B47, the He/Con_2aR is 105 relative, control = 100. Regarding B48, the He/Con_2aR is 106 relative, control = 100. The result for B49 reads 110 relative, control = 100. The result for B50 reads 102 relative, control = 100.
